{
  "source": "paper PMC9482650",
  "about": "“Quantitative fragmentomics allow affinity mapping of interactomes” (Nature Communications, 2022)",
  "binders": {"B1": {"name": "OTULIN, Q96BN8 (peptide)", "chain": "PVRVCEETSL"}, "B2": {"name": "ACVR2A, P27037 (peptide)", "chain": "VDFPPKESSL"}},
  "data": [
    {"target": "T1, ARHGAP21, Q5T5U3", "T1 sequence (Q5T5U3 45-169, limits assumed, looked up)": "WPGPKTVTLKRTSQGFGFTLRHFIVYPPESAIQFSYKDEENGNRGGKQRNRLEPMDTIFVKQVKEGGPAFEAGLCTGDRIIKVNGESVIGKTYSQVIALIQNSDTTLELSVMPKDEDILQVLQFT", "assay": "holdup assay", "set-up": "key: below the threshold = too weak to quantify, mostly under pKd 3.1 to 4", "settings": "plain residues with an end cap or a label only (N-terminal biotin on a linker: ttds)", "values": [
      {"binder": "B1", "pKd": 4.2},
      {"binder": "B2", "pKd": "below the threshold"}
    ]},
    {"target": "GRID2IP_1, A4D2P6", "sequence (A4D2P6 1-87)": "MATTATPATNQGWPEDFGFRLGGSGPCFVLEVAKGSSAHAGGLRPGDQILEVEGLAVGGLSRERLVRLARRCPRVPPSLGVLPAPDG", "assay": "holdup assay", "set-up": "key: below the threshold = too weak to quantify, mostly under pKd 3.1 to 4", "settings": "plain residues with an end cap or a label only (N-terminal biotin on a linker: ttds)", "values": [
      {"binder": "B1", "pKd": "below the threshold"},
      {"binder": "B2", "pKd": "below the threshold"}
    ]},
    {"target": "T2, PCLO, Q9Y6V0", "T2 sequence (Q9Y6V0 4491-4600, limits assumed, looked up)": "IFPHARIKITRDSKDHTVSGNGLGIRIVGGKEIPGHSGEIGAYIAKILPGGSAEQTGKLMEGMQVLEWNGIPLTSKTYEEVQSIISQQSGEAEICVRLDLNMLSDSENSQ", "assay": "holdup assay", "set-up": "key: below the threshold = too weak to quantify, mostly under pKd 3.1 to 4", "settings": "plain residues with an end cap or a label only (N-terminal biotin on a linker: ttds)", "values": [
      {"binder": "B1", "pKd": "below the threshold"},
      {"binder": "B2", "pKd": "below the threshold"}
    ]},
    {"target": "T3, PDZD7_3, Q9H5P4", "T3 sequence (Q9H5P4 857-944, limits assumed, looked up)": "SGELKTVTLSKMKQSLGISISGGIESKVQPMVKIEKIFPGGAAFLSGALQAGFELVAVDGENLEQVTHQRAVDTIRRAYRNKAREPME", "assay": "holdup assay", "set-up": "key: below the threshold = too weak to quantify, mostly under pKd 3.1 to 4", "settings": "plain residues with an end cap or a label only (N-terminal biotin on a linker: ttds)", "values": [
      {"binder": "B1", "pKd": 4.41},
      {"binder": "B2", "pKd": 3.61}
    ]},
    {"target": "T4, MPDZ_5, O75970", "T4 sequence (O75970 695-796, limits assumed, looked up)": "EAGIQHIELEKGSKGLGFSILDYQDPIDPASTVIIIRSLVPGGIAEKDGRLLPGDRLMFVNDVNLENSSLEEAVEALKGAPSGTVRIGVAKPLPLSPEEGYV", "assay": "holdup assay", "set-up": "key: below the threshold = too weak to quantify, mostly under pKd 3.1 to 4", "settings": "plain residues with an end cap or a label only (N-terminal biotin on a linker: ttds)", "values": [
      {"binder": "B1", "pKd": "below the threshold"},
      {"binder": "B2", "pKd": "below the threshold"}
    ]},
    {"target": "Inadl_10, Q8NI35", "sequence (Q8NI35 1673-1763)": "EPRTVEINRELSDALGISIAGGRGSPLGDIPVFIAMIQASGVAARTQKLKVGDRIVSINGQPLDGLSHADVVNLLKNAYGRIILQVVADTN", "assay": "holdup assay", "set-up": "key: below the threshold = too weak to quantify, mostly under pKd 3.1 to 4", "settings": "plain residues with an end cap or a label only (N-terminal biotin on a linker: ttds)", "values": [
      {"binder": "B1", "pKd": 3.55},
      {"binder": "B2", "pKd": "below the threshold"}
    ]},
    {"target": "DLG2_2, Q15700", "assay": "holdup assay", "set-up": "key: below the threshold = too weak to quantify, mostly under pKd 3.1 to 4", "settings": "plain residues with an end cap or a label only (N-terminal biotin on a linker: ttds)", "values": [
      {"binder": "B1", "pKd": 3.87},
      {"binder": "B2", "pKd": 3.84}
    ]},
    {"target": "HTRA1, Q92743", "sequence (Q92743 360-477)": "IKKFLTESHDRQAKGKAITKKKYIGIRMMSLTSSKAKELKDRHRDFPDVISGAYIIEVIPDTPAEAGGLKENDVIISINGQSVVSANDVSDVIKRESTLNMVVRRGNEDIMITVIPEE", "assay": "holdup assay", "set-up": "key: below the threshold = too weak to quantify, mostly under pKd 3.1 to 4", "settings": "plain residues with an end cap or a label only (N-terminal biotin on a linker: ttds)", "values": [
      {"binder": "B1", "pKd": 4.04},
      {"binder": "B2", "pKd": "below the threshold"}
    ]},
    {"target": "T5, PTPN13_1, Q12923", "T5 sequence (Q12923 1088-1188, limits assumed, looked up)": "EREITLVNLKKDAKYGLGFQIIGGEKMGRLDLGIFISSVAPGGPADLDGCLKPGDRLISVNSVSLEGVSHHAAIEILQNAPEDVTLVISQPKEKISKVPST", "assay": "holdup assay", "set-up": "key: below the threshold = too weak to quantify, mostly under pKd 3.1 to 4", "settings": "plain residues with an end cap or a label only (N-terminal biotin on a linker: ttds)", "values": [
      {"binder": "B1", "pKd": "below the threshold"},
      {"binder": "B2", "pKd": "below the threshold"}
    ]},
    {"target": "T6, LIN7A, O14910", "T6 sequence (O14910 103-200, limits assumed, looked up)": "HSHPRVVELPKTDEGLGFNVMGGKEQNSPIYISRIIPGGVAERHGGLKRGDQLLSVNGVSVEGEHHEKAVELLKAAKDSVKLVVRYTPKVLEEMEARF", "assay": "holdup assay", "set-up": "key: below the threshold = too weak to quantify, mostly under pKd 3.1 to 4", "settings": "plain residues with an end cap or a label only (N-terminal biotin on a linker: ttds)", "values": [
      {"binder": "B1", "pKd": 3.47},
      {"binder": "B2", "pKd": 3.24}
    ]},
    {"target": "DLG1_3, Q12959", "sequence (Q12959 457-571)": "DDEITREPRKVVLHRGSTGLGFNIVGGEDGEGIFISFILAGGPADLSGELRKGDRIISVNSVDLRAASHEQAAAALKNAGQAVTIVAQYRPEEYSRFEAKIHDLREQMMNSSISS", "assay": "holdup assay", "set-up": "key: below the threshold = too weak to quantify, mostly under pKd 3.1 to 4", "settings": "plain residues with an end cap or a label only (N-terminal biotin on a linker: ttds)", "values": [
      {"binder": "B1", "pKd": 4.14},
      {"binder": "B2", "pKd": 4.11}
    ]},
    {"target": "GOPC, Q9HD26", "assay": "holdup assay", "set-up": "key: below the threshold = too weak to quantify, mostly under pKd 3.1 to 4", "settings": "plain residues with an end cap or a label only (N-terminal biotin on a linker: ttds)", "values": [
      {"binder": "B1", "pKd": 4.44},
      {"binder": "B2", "pKd": 3.45}
    ]},
    {"target": "T7, LRRC7, Q96NW7", "T7 sequence (Q96NW7 1440-1537, limits assumed, looked up)": "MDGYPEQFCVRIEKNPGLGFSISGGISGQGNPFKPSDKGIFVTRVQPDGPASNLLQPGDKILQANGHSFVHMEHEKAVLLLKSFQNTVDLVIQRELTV", "assay": "holdup assay", "set-up": "key: below the threshold = too weak to quantify, mostly under pKd 3.1 to 4", "settings": "plain residues with an end cap or a label only (N-terminal biotin on a linker: ttds)", "values": [
      {"binder": "B1", "pKd": "below the threshold"},
      {"binder": "B2", "pKd": "below the threshold"}
    ]},
    {"target": "T8, SYNJ2BP, P57105", "T8 sequence (P57105 8-110, limits assumed, looked up)": "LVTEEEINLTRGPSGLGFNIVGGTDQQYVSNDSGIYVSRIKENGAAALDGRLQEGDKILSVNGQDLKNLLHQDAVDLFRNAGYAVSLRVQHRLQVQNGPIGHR", "assay": "holdup assay", "set-up": "key: below the threshold = too weak to quantify, mostly under pKd 3.1 to 4", "settings": "plain residues with an end cap or a label only (N-terminal biotin on a linker: ttds)", "values": [
      {"binder": "B1", "pKd": 4.74},
      {"binder": "B2", "pKd": 4.53}
    ]},
    {"target": "GRIP2_7, Q9C0E4", "sequence (Q9C0E4 934-1023)": "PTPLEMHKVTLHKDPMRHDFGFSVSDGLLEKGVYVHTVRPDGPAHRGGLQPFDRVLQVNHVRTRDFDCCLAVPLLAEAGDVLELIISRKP", "assay": "holdup assay", "set-up": "key: below the threshold = too weak to quantify, mostly under pKd 3.1 to 4", "settings": "plain residues with an end cap or a label only (N-terminal biotin on a linker: ttds)", "values": [
      {"binder": "B1", "pKd": 3.66},
      {"binder": "B2", "pKd": "below the threshold"}
    ]},
    {"target": "FRMPD2_2, Q68DX3", "sequence (Q68DX3 944-1038)": "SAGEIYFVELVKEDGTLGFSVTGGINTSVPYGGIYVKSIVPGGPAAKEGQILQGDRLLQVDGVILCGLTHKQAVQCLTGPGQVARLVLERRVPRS", "assay": "holdup assay", "set-up": "key: below the threshold = too weak to quantify, mostly under pKd 3.1 to 4", "settings": "plain residues with an end cap or a label only (N-terminal biotin on a linker: ttds)", "values": [
      {"binder": "B1", "pKd": 3.51},
      {"binder": "B2", "pKd": "below the threshold"}
    ]},
    {"target": "GRIP2_3, Q9C0E4", "sequence (Q9C0E4 238-339)": "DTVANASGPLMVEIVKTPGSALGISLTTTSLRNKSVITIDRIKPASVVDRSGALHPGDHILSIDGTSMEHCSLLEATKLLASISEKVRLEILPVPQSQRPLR", "assay": "holdup assay", "set-up": "key: below the threshold = too weak to quantify, mostly under pKd 3.1 to 4", "settings": "plain residues with an end cap or a label only (N-terminal biotin on a linker: ttds)", "values": [
      {"binder": "B1", "pKd": 3.57},
      {"binder": "B2", "pKd": "below the threshold"}
    ]},
    {"target": "GIPC2, Q8TF65", "sequence (Q8TF65 112-203)": "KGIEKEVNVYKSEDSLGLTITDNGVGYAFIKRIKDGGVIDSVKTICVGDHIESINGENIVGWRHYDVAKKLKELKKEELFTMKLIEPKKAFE", "assay": "holdup assay", "set-up": "key: below the threshold = too weak to quantify, mostly under pKd 3.1 to 4", "settings": "plain residues with an end cap or a label only (N-terminal biotin on a linker: ttds)", "values": [
      {"binder": "B1", "pKd": 4.02},
      {"binder": "B2", "pKd": "below the threshold"}
    ]},
    {"target": "T9, PARD3B_1, Q8TEW8", "T9 sequence (Q8TEW8 196-299, limits assumed, looked up)": "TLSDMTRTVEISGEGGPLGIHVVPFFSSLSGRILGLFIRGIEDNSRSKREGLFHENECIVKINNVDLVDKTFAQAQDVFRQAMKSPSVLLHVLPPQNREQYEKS", "assay": "holdup assay", "set-up": "key: below the threshold = too weak to quantify, mostly under pKd 3.1 to 4", "settings": "plain residues with an end cap or a label only (N-terminal biotin on a linker: ttds)", "values": [
      {"binder": "B1", "pKd": 4.09},
      {"binder": "B2", "pKd": "below the threshold"}
    ]},
    {"target": "DLG2_3, Q15700", "assay": "holdup assay", "set-up": "key: below the threshold = too weak to quantify, mostly under pKd 3.1 to 4", "settings": "plain residues with an end cap or a label only (N-terminal biotin on a linker: ttds)", "values": [
      {"binder": "B1", "pKd": 3.95},
      {"binder": "B2", "pKd": 3.75}
    ]},
    {"target": "T10, RAPGEF6, Q8TEU7", "T10 sequence (Q8TEU7 525-625, limits assumed, looked up)": "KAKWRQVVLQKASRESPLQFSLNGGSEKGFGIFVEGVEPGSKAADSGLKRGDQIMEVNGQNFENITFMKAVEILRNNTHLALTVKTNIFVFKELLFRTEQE", "assay": "holdup assay", "set-up": "key: below the threshold = too weak to quantify, mostly under pKd 3.1 to 4", "settings": "plain residues with an end cap or a label only (N-terminal biotin on a linker: ttds)", "values": [
      {"binder": "B1", "pKd": "below the threshold"},
      {"binder": "B2", "pKd": "below the threshold"}
    ]},
    {"target": "T11, SNTB1, Q13884", "T11 sequence (Q13884 107-205, limits assumed, looked up)": "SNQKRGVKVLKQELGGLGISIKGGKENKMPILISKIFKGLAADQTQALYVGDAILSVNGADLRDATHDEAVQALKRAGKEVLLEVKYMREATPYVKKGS", "assay": "holdup assay", "set-up": "key: below the threshold = too weak to quantify, mostly under pKd 3.1 to 4", "settings": "plain residues with an end cap or a label only (N-terminal biotin on a linker: ttds)", "values": [
      {"binder": "B1", "pKd": 4.61},
      {"binder": "B2", "pKd": 4.41}
    ]},
    {"target": "DLG4_3, P78352", "sequence (P78352 306-403)": "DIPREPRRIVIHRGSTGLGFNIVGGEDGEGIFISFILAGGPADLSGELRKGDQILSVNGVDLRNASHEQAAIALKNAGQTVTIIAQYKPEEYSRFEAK", "assay": "holdup assay", "set-up": "key: below the threshold = too weak to quantify, mostly under pKd 3.1 to 4", "settings": "plain residues with an end cap or a label only (N-terminal biotin on a linker: ttds)", "values": [
      {"binder": "B1", "pKd": 3.96},
      {"binder": "B2", "pKd": 3.71}
    ]},
    {"target": "T12, SIPA1L2, Q9P2F8", "T12 sequence (Q9P2F8 945-1036, limits assumed, looked up)": "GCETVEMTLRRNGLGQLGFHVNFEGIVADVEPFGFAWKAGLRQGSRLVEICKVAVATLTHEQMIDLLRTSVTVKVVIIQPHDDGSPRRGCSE", "assay": "holdup assay", "set-up": "key: below the threshold = too weak to quantify, mostly under pKd 3.1 to 4", "settings": "plain residues with an end cap or a label only (N-terminal biotin on a linker: ttds)", "values": [
      {"binder": "B1", "pKd": "below the threshold"},
      {"binder": "B2", "pKd": "below the threshold"}
    ]},
    {"target": "DLG1_2, Q12959", "sequence (Q12959 314-412)": "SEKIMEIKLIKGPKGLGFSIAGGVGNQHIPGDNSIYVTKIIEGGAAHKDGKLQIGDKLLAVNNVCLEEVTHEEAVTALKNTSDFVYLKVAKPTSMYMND", "assay": "holdup assay", "set-up": "key: below the threshold = too weak to quantify, mostly under pKd 3.1 to 4", "settings": "plain residues with an end cap or a label only (N-terminal biotin on a linker: ttds)", "values": [
      {"binder": "B1", "pKd": 4.56},
      {"binder": "B2", "pKd": 4.24}
    ]}
  ]
}
